Measurements from patent US10428140B2, “Anti-EphA4 antibody” (EISAI R&D MANAGEMENT CO., LTD., priority 2015, dated 2019).

What was measured:
Test in all cases: Selectivity ELISA of humanized antibodies for human Eph receptor
Type in all cases: binding
human EphA4 = target: T1, human EphA4 (Homo sapiens, UniProt P54764); details: coated protein 1 nM; reference set to 100%
T1 construct: made in house; not restated for the human SEAP-His protein
In short: (§1)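 Capture ELISA: anti-6-His coat, 1% BlockAce block, Eph ECD-SEAP-His (1 nM final, Expi293F supernatant) 1 h RT, humanized Ab 1 h RT, HRP anti-IgG 1 h RT, TMB, H2SO4 stop, A450.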

human EphA5 = target: T2, human EphA5 (Homo sapiens, UniProt P54756); details: coated protein 1 nM
T2 construct: a protein of the extracellular region of each human Eph receptor fused with the SEAP protein and the His tag; made in house; host or cells: Expi293F cells (culture supernatant)
In short: as §1

human EphA7 = target: T3, human EphA7 (Homo sapiens, UniProt Q15375); details: coated protein 1 nM
T3 construct: a protein of the extracellular region of each human Eph receptor fused with the SEAP protein and the His tag; made in house; host or cells: Expi293F cells (culture supernatant)
T3 sequence (Q15375 28-555 limits assumed): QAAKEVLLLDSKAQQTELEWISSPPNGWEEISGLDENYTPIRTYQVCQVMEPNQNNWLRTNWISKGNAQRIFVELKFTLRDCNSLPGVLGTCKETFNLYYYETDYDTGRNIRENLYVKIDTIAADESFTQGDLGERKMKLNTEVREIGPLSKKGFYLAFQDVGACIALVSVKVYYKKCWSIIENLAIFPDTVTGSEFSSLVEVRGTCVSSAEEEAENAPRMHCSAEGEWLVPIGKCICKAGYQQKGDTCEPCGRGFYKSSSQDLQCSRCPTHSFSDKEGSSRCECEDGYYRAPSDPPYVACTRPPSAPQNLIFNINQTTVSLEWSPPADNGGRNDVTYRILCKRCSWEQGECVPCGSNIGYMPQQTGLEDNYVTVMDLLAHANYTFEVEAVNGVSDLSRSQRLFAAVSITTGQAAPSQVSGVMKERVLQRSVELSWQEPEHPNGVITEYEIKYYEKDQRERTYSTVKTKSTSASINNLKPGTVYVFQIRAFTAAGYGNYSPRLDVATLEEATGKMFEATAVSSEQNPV
In short: as §1

human EphB2 = target: T4, human EphB2 (Homo sapiens, UniProt P29323); details: coated protein 1 nM
T4 construct: a protein of the extracellular region of each human Eph receptor fused with the SEAP protein and the His tag; made in house; host or cells: Expi293F cells
T4 sequence (P29323 19-543 limits assumed): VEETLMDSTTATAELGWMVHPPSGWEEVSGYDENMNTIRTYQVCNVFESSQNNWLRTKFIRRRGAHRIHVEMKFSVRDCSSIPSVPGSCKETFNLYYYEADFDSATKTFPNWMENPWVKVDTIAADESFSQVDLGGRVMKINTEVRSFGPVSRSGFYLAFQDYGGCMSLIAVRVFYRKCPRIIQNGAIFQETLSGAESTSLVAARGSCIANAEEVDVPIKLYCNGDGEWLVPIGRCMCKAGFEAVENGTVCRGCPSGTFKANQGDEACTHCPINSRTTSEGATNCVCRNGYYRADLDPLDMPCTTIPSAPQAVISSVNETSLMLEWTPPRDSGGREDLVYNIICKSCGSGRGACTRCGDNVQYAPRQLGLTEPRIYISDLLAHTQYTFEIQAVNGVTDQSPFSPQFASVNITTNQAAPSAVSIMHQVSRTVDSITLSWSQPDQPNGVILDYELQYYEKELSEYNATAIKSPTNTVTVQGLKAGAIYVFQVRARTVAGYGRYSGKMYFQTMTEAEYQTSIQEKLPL
In short: as §1

T2 sequence (P54756 25-573 limits assumed): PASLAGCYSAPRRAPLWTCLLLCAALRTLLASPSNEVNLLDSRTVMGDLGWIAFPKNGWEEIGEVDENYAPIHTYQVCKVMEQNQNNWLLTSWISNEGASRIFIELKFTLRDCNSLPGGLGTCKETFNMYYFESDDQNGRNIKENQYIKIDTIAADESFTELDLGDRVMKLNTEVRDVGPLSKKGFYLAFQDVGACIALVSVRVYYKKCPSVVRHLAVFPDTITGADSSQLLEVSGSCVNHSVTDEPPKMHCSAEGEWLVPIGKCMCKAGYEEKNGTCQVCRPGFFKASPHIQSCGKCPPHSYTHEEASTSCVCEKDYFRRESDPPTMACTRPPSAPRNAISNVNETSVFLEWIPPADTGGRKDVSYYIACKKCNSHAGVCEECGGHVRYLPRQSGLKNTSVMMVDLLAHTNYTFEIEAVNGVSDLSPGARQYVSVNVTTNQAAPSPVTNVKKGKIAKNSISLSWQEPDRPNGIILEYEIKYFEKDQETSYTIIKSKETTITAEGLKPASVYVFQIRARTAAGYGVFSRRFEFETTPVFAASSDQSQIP
T1 sequence (P54764 20-547): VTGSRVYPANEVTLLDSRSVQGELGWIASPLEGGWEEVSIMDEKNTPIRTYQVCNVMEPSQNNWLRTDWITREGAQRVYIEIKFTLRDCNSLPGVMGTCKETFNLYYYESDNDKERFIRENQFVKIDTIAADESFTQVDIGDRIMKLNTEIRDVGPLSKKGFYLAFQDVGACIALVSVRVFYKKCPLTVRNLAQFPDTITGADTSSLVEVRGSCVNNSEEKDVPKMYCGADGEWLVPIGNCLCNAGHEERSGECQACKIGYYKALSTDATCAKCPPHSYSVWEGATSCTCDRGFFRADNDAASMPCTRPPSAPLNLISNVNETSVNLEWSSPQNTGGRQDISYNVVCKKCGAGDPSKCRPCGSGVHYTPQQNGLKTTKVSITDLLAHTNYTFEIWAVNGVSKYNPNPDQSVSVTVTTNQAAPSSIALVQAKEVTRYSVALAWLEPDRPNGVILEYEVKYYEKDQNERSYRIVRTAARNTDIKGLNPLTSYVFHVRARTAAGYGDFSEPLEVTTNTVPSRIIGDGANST

B1: 159 (antibody, V domains shown)
VH: QVQLVQSGSELKKPGASVKVSCKASGYTFTDYSMHWVRQAPGQGLKWMGWINTETGEPTYADDFKGRFVFSLDTSVSTAYLQISSLKAEDTAVYYCARIPLYYYGSRYWYFDVWGQGTTVTVSS
VL: DIQMTQSPSSLSASVGDRVTITCRASENIYRNLAWYQQKPGKAPQLLLYAATNLADGVPSRFSGSGSGTDYTLTISSLQPEDFATYYCQHFWGTPWTFGQGTKVEIK
modifications: synthetic humanized antibody heavy chain variable region sequence; synthetic humanized antibody light chain variable region sequence
hEphA4-SEAP-: absorbance at 450 nm, percentage with respect to hEphA4-SEAP-His as 100% (human EphA4): 100% | hEphA5-SEAP-: absorbance at 450 nm, percentage with respect to hEphA4-SEAP-His as 100% (human EphA5): 5.5% | hEphA7-SEAP-: absorbance at 450 nm, percentage with respect to hEphA4-SEAP-His as 100% (human EphA7): 5.5% | hEphB2-SEAP-: absorbance at 450 nm, percentage with respect to hEphA4-SEAP-His as 100% (human EphB2): 5.4%

B2: 75 (antibody)
VH: QVQLVQSGSELKKPGASVKVSCKASGYTFTDYSMHWVRQAPGQGLEWMGWINTETGEPTYAQGFTGRFVFSLDTSVSTAYLQISSLKAEDTAVYYCARIPLYYYGSRYWYFDVWGQGTTVTVSS
VL: DIQMTQSPSSLSASVGDRVTITCRASENIYRNLAWYQQKPGKAPKLLVYAATNLADGVPSRFSGSGSGTDYTLTISSLQPEDFATYYCQHFWGTPWTFGQGTKVEIK
chain: ASTKGPSVFPLAPSSKSTSGGTAALGCLVKDYFPEPVTVSWNSGALTSGVHTFPAVLQSSGLYSLSSVVTVPSSSLGTQTYICNVNHKPSNTKVDKRVEPKSCDKTHTCPPCPAPPAAAPSVFLFPPKPKDTLMISRTPEVTCVVVDVSHEDPEVQFNWYVDGVEVHNAKTKPREEQFNSTFRVVSVLTVVHQDWLNGKEYKCKVSNKGLPAPIEKTISKTKGQPREPQVYTLPPSREEMTKNQVSLTCLVKGFYPSDIAVEWESNGQPENNYKTTPPMLDSDGSFFLYSKLTVDKSRWQQGNVFSCSVMHEALHNHYTQKSLSLSPG
modifications: synthetic humanized antibody heavy chain variable region sequence; synthetic humanized antibody light chain variable region sequence; synthetic antibody constant region sequence
hEphA4-SEAP-: absorbance at 450 nm, percentage with respect to hEphA4-SEAP-His as 100% (human EphA4): 100% | hEphA5-SEAP-: absorbance at 450 nm, percentage with respect to hEphA4-SEAP-His as 100% (human EphA5): 4.7% | hEphA7-SEAP-: absorbance at 450 nm, percentage with respect to hEphA4-SEAP-His as 100% (human EphA7): 4.7% | hEphB2-SEAP-: absorbance at 450 nm, percentage with respect to hEphA4-SEAP-His as 100% (human EphB2): 4.5%

B3: 134 (antibody, V domains shown)
VH: QVQLVQSGSELKKPGASVKVSCKASGYTFTDYSMHWVRQAPGQGLKWMGWINTETGEPTYAQGFTGRFVFSLDTSVSTAYLQISSLKAEDTAVYYCARIPLYYYGSRYWYFDVWGQGTTVTVSS
VL: EIVMTQSPATLSVSPGERATLSCRASENIYRNLAWYQQKPGQSPRLLIYAATNLADGIPARFSGSGSGTEYTLTISSLQSEDFAVYYCQHFWGTPWTFGQGTKVEIK
modifications: synthetic humanized antibody heavy chain variable region sequence; synthetic humanized antibody light chain variable region sequence
hEphA4-SEAP-: absorbance at 450 nm, percentage with respect to hEphA4-SEAP-His as 100% (human EphA4): 100% | hEphA5-SEAP-: absorbance at 450 nm, percentage with respect to hEphA4-SEAP-His as 100% (human EphA5): 5.2% | hEphA7-SEAP-: absorbance at 450 nm, percentage with respect to hEphA4-SEAP-His as 100% (human EphA7): 5.1% | hEphB2-SEAP-: absorbance at 450 nm, percentage with respect to hEphA4-SEAP-His as 100% (human EphB2): 5.1%

B4: 135 (antibody, V domains shown)
VH: QVQLVQSGSELKKPGASVKVSCKASGYTFTDYSMHWVRQAPGQGLEWMGWINTETGEPTYADDFKGRFVFSLDTSVSTAYLQISSLKAEDTAVYYCARIPLYYYGSRYWYFDVWGQGTTVTVSS
VL: EIVMTQSPATLSVSPGERATLSCRASENIYRNLAWYQQKPGQSPRLLIYAATNLADGIPARFSGSGSGTEYTLTISSLQSEDFAVYYCQHFWGTPWTFGQGTKVEIK
modifications: synthetic humanized antibody heavy chain variable region sequence; synthetic humanized antibody light chain variable region sequence
hEphA4-SEAP-: absorbance at 450 nm, percentage with respect to hEphA4-SEAP-His as 100% (human EphA4): 100% | hEphA5-SEAP-: absorbance at 450 nm, percentage with respect to hEphA4-SEAP-His as 100% (human EphA5): 5.0% | hEphA7-SEAP-: absorbance at 450 nm, percentage with respect to hEphA4-SEAP-His as 100% (human EphA7): 5.2% | hEphB2-SEAP-: absorbance at 450 nm, percentage with respect to hEphA4-SEAP-His as 100% (human EphB2): 5.0%

B5: 160 (antibody, V domains shown)
VH: QIQLVQSGSELKKPGASVKVSCKASGYTFTDYSMHWVRQAPGQGLKWMGWINTETGEPTYADDFKGRFVFSLDTSVSTAYLQISSLKAEDTAVYYCARIPLYYYGSRYWYFDVWGQGTTVTVSS
VL: DIQMTQSPSSLSASVGDRVTITCRASENIYRNLAWYQQKPGKAPQLLLYAATNLADGVPSRFSGSGSGTDYTLTISSLQPEDFATYYCQHFWGTPWTFGQGTKVEIK
modifications: synthetic humanized antibody heavy chain variable region sequence; synthetic humanized antibody light chain variable region sequence
hEphA4-SEAP-: absorbance at 450 nm, percentage with respect to hEphA4-SEAP-His as 100% (human EphA4): 100% | hEphA5-SEAP-: absorbance at 450 nm, percentage with respect to hEphA4-SEAP-His as 100% (human EphA5): 6.5% | hEphA7-SEAP-: absorbance at 450 nm, percentage with respect to hEphA4-SEAP-His as 100% (human EphA7): 6.1% | hEphB2-SEAP-: absorbance at 450 nm, percentage with respect to hEphA4-SEAP-His as 100% (human EphB2): 6.2%

B6: 133 (antibody, V domains shown)
VH: QVQLVQSGSELKKPGASVKVSCKASGYTFTDYSMHWVRQAPGQGLEWMGWINTETGEPTYAQGFTGRFVFSLDTSVSTAYLQISSLKAEDTAVYYCARIPLYYYGSRYWYFDVWGQGTTVTVSS
VL: EIVMTQSPATLSVSPGERATLSCRASENIYRNLAWYQQKPGQSPRLLIYAATNLADGIPARFSGSGSGTEYTLTISSLQSEDFAVYYCQHFWGTPWTFGQGTKVEIK
modifications: synthetic humanized antibody heavy chain variable region sequence; synthetic humanized antibody light chain variable region sequence
hEphA4-SEAP-: absorbance at 450 nm, percentage with respect to hEphA4-SEAP-His as 100% (human EphA4): 100% | hEphA5-SEAP-: absorbance at 450 nm, percentage with respect to hEphA4-SEAP-His as 100% (human EphA5): 4.7% | hEphA7-SEAP-: absorbance at 450 nm, percentage with respect to hEphA4-SEAP-His as 100% (human EphA7): 4.6% | hEphB2-SEAP-: absorbance at 450 nm, percentage with respect to hEphA4-SEAP-His as 100% (human EphB2): 4.6%

B7: 132 (antibody, V domains shown)
VH: QIQLVQSGSELKKPGASVKVSCKASGYTFTDYSMHWVRQAPGQGLKWMGWINTETGEPTYAQGFTGRFVFSLDTSVSTAYLQISSLKAEDTAVYYCARIPLYYYGSRYWYFDVWGQGTTVTVSS
VL: EIVMTQSPATLSVSPGERATLSCRASENIYRNLAWYQQKPGQSPRLLIYAATNLADGIPARFSGSGSGTEYTLTISSLQSEDFAVYYCQHFWGTPWTFGQGTKVEIK
modifications: synthetic humanized antibody heavy chain variable region sequence; synthetic humanized antibody light chain variable region sequence
hEphA4-SEAP-: absorbance at 450 nm, percentage with respect to hEphA4-SEAP-His as 100% (human EphA4): 100% | hEphA5-SEAP-: absorbance at 450 nm, percentage with respect to hEphA4-SEAP-His as 100% (human EphA5): 4.7% | hEphA7-SEAP-: absorbance at 450 nm, percentage with respect to hEphA4-SEAP-His as 100% (human EphA7): 4.5% | hEphB2-SEAP-: absorbance at 450 nm, percentage with respect to hEphA4-SEAP-His as 100% (human EphB2): 4.7%
